# Measured values: patent US20250320312A1 (OXITOPE PHARMA B V, published 2025)
# Substitutions are numbered along the chain they refer to.
# T1: Peptide 8: Biotin-AEAAAKEAAAKEAAAKEAAAKAAA-Tyr-acid (N-terminal biotin; C-terminal acid)
# T1 construct: Control peptide without PC
# T1 peptide: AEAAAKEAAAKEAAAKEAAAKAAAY
# T2: Peptide 4: Biotin-AGGGGSGGGGSGGGGSAAA-Tyr-acid (N-terminal biotin; C-terminal acid)
# T2 construct: Control peptide without PC
# T2 peptide: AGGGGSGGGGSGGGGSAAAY
# B1: PcOxP_DB02_F06 (scFv, V domains shown)
# VH: EVQLLESGGGLVQPGGSLRLSCAASGFTFSDEYMEWVRQAPGKGLEWVAASRNKANDFTTEYADSVKGRFTISRDNSKNTLYLQMNSLRAEDTAVYYCARDFYGSSYWYFDVWGQGTLVTVSS
# VL: DIVMTQSPDSLAVSLGERATINCTASESIYSSKHKVHYLAWYQQKPGQPPKLLIYGASNRYIGVPDRFSGSGSGTDFTLTISSLQAEDVAVYYCAQFYSYPLTFGGGTKVEIK
# notes: scFv in periplasmic extract
# B2: PcOxP_DB02_G02 (scFv, V domains shown)
# VH: B1 VH with T28G, E32F, F58Y, F102Y
# VL: B1 VL with I29L, I62S
# notes: scFv in periplasmic extract
# B3: PcOxP_DB02_G05 (scFv, V domains shown)
# VH: B1 VH with E32F, F58Y, F102Y, Y107H
# VL: B1 VL with I29L, V36L, A95G
# notes: scFv in periplasmic extract
# B4: PcOxP_DB02_F09 (scFv, V domains shown)
# VH: B1 VH with T28Q, E32F, A55G, D57S, F58Y, E61A, F102Y
# VL: B1 VL with I29L, I62S
# notes: scFv in periplasmic extract
# B5: PcOxP_DB02_G04 (scFv, V domains shown)
# VH: B1 VH with E32Y, N53W, F58Y, F102Y
# VL: B1 VL with T24K, E27Q, I29V, Y30L, S31Y, H34N, V36K, Y61Q, S99V
# notes: scFv in periplasmic extract
# B6: PcOxP_DB02_H06 (scFv, V domains shown)
# VH: B1 VH with E32Q, F58Y, F102Y
# VL: B1 VL with A25S, I29L, H34N, H37N, S99F
# notes: scFv in periplasmic extract
# B7: PcOxP_DB02_H04 (scFv, V domains shown)
# VH: B1 VH with F58Y, F102Y
# VL: B1 VL with I29L, H37V, S99F
# notes: scFv in periplasmic extract
# B8: PcOxP_DB02_H07 (scFv, V domains shown)
# VH: B1 VH with D31S, E32Y, F58Y, F102Y
# VL: B1 VL with I29L, I62N, S99T
# notes: scFv in periplasmic extract
# B9: PcOxP_DB02_F10 (scFv, V domains shown)
# VH: B1 VH with E32Q, F58Y, F102Y
# VL: B1 VL with A25S, E27Q, I29V, Y30L, K35N, V36K, H37N, I62W
# notes: scFv in periplasmic extract
# B10: PcOxP_DB02_H05 (scFv, V domains shown)
# VH: B1 VH with E32F, F58Y, F102Y, V112P
# VL: B1 VL with I29L, I62L
# notes: scFv in periplasmic extract
# B11: PcOxP_DB02_H08 (scFv, V domains shown)
# VH: B1 VH with E32A, F58Y, F102Y, S106H
# VL: B1 VL with A25S, E27Q, I29L, K35N, V36K
# notes: scFv in periplasmic extract
# B12: PcOxP_DB02_F11 (scFv, V domains shown)
# VH: B1 VH with F27T, E32F, A55Y, F58Y, F102Y
# VL: B1 VL with I29L, I62P
# notes: scFv in periplasmic extract
# Target: Peptide 1: Biotin-…-[Tyr(PC)]-acid
# Test: scFv ELISA
row,OD450 [OD450],Binder
1,0.16,B1
2,1.01,B2
3,1.49,B3
4,0.39,B4
5,0.32,B5
6,0.92,B6
7,0.22,B7
8,0.56,B8
9,0.51,B9
10,0.2,B10
11,0.4,B11
12,0.23,B12

# Target: Peptide 5: Biotin-…-[Tyr(PC)]-acid
# Test: scFv ELISA
row,OD450 [OD450],Binder
1,0.45,B1
2,1.13,B2
3,1.8,B3
4,0.93,B4
5,0.7,B5
6,1.04,B6
7,0.2,B7
8,0.88,B8
9,1.2,B9
10,0.44,B10
11,1.34,B11
12,0.66,B12

# Target: BSA (UniProt P02769)
# Test: scFv ELISA
# Sequence of BSA (P02769 25-607 limits assumed): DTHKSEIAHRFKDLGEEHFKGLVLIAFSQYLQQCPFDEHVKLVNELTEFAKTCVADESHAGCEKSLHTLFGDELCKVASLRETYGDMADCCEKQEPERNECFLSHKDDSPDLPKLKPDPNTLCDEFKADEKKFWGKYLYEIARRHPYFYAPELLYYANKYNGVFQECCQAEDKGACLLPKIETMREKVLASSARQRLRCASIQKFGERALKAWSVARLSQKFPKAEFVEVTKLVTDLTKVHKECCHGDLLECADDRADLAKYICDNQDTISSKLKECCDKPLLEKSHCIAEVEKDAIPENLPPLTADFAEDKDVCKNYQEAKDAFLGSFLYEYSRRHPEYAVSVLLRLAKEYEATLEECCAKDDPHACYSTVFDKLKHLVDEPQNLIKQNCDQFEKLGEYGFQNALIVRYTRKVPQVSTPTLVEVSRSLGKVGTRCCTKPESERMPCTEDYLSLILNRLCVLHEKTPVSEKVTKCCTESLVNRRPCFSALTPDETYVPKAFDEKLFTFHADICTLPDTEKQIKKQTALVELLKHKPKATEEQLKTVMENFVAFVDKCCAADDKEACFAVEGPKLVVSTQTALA
row,OD450 [OD450],Binder
1,0.06,B1
2,0.06,B2
3,0.11,B3
4,0.08,B4
5,0.11,B5
6,0.07,B6
7,0.06,B7
8,0.07,B8
9,0.09,B9
10,0.09,B10
11,0.07,B11
12,0.08,B12

# Target: T1, Peptide 8: …
# Test: scFv ELISA
# Procedure, shortened: (§1)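 Bound scFv was read as OD450 after HRP–anti-V5 detection, TMB development and HCl stop. PPE with BSA was incubated 1 h at RT on BSA-blocked wells coated overnight at 4° C. with peptide, or on streptavidin wells loaded 1 h with biotinylated PC-peptides at 1 μg/mL.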
row,OD450 [OD450],Binder
1,0.04,B1
2,0.04,B2
3,0.07,B3
4,0.04,B4
5,0.05,B5
6,0.05,B6
7,0.04,B7
8,0.05,B8
9,0.04,B9
10,0.04,B10
11,0.06,B11
12,0.04,B12

# Target: T2, Peptide 4: …
# Test: scFv ELISA
# Procedure, shortened: as §1
row,OD450 [OD450],Binder
1,0.04,B1
2,0.04,B2
3,0.05,B3
4,0.04,B4
5,0.05,B5
6,0.05,B6
7,0.05,B7
8,0.04,B8
9,0.05,B9
10,0.04,B10
11,0.04,B11
12,0.04,B12
